Among the data in publication PMC8152684 are Km values, retold here.

Substrate in the series: NC(=O)C[C@H](N)C(=O)O
Description: purified protein. Particulars: free enzyme in solution, 50 mM Tris-HCl pH 8.6, 37 °C.

B1: L-asparaginase (Asp) (Escherichia coli K-12) (protein)
chain: LPNITILATGGTIAGGGDSATKSNYTVGKVGVENLVNAVPQLKDIANVKGEQVVNIGSQDMNDNVWLTLAKKINTDCDKTDGFVITHGTDTMEETAYFLDLTVKCDKPVVMVGAMRPSTSMSADGPFNLYNAVVTAADKASANRGVLVVMNDTVLDGRDVTKTNTTDVATFKSVNYGPLGYIHNGKIDYQRTPARKHTSDTPFDVSKLNELPKVGIVYNYANASDLPAKALVDAGYDGIVSAGVGNGNLYKSVFDTLATAAKTGTAVVRSSRVPTGATTQDAEVDDAKYGFVASGTLNPQKARVLLQLALTQTKDPQQIQQIFNQY
As usually defined, the Km is the substrate concentration at which the rate is half of its maximum. In the case of B1, the Km was 140 µM.
